# Assay results from the supplement of paper PMC7877785.
# ± gives the uncertainty stated by the source.
# Assay: self-splicing fitness, log relative to wild type (ln ratio); higher = more splicing; Tetrahymena group I intron in knt gene, E. coli kanamycin selection, DiMSum; sequences stand for … in CUCUCU…GGAGGGAAAAGUUAUCAGGCAUGCACCUGGUAGCUAGUCUUUAAACCAAUAGAUUGCAUCGGUUUAAAAGGCAAGACCGUCAAAUUGCGGGAAAGGGGUCAACAGCCGUUCAGUACCAAGUCUCAGGGGAAACUUUGAGAUGGCCUUGCAAAGGGUAUGGUAAUAAGCUGACGGACAUGGUCCUAACCACGCAGCCAAGUCCUAAGUCAACAGAUCUUCUGUUGAUAUGGAUGCAGUUCACAGACUAAAUGUCGGUCGGGGAAGAUGUAUUCUUCUCAUAAGAUAUAGUCGGACCUCUCCUUAAUGGGAGCUAGCGGAUGAAGUGAUGCAACACUGGAGCCGCUGGGAACUAAUUUGUAUGCGAAAGUAUAUUGAUUAGUUUUGGAGUACUCGUGGUCG
# Summary of the method: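 DiMSum derived fitness as the error-weighted combination of fold changes across replicates, kanamycin versus no kanamycin, normalised to wild type. E. coli BL21(DE3) held the library, which randomised all eight P1ex-region intron nucleotides within the knt kanamycin-resistance gene on pET-22b(+). Six replicate transformations grew overnight at 37°C or 30°C on LB agar with or without 25 μg/mL kanamycin, also containing 100 μg/mL carbenicillin, 50 μM IPTG and 0.2% rhamnose, and pooled colonies were amplicon-sequenced on an Illumina HiSeq 2500.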
Sequence,self-splicing fitness (ln) (30 °C),self-splicing fitness (ln) (37 °C)
AGGUAGCAAUAUUACGCACC,-2.33 ± 0.031,-1.26 ± 0.042
AUAGAGCAAUAUUACGCCUC,-1.52 ± 0.24,-0.831 ± 0.5
GUGUAGCAAUAUUACGCUAC,-2.35 ± 0.49,
GUUCAGCAAUAUUACGCGUA,-0.404 ± 0.12,-0.287 ± 0.15
UAUCAGCAAUAUUACGCGAG,-0.712 ± 0.057,-0.298 ± 0.071
UAAAAGCAAUAUUACGUUUC,-3.32 ± 0.14,-2.36 ± 0.19
UCAUAGCAAUAUUACGUGAG,-1.1 ± 0.081,-0.39 ± 0.11
UAUCAGCAAUAUUACGCACG,-0.349 ± 0.11,0.232 ± 0.14
AGCCAGCAAUAUUACGUGGC,-3.74 ± 0.19,-3.57 ± 0.29
AUUGAGCAAUAUUACGACGU,-0.46 ± 0.12,-0.115 ± 0.13
UCUGAGCAAUAUUACGCAAG,-3.36 ± 0.18,-2.16 ± 0.19
AGAAAGCAAUAUUACGGCAG,-0.958 ± 0.095,-1.28 ± 0.12
AUGGAGCAAUAUUACGUUUA,-2.59 ± 0.28,-1.83 ± 0.27
UAUGAGCAAUAUUACGCCUU,-3.19 ± 0.29,-2.11 ± 0.34
CCGAAGCAAUAUUACGAUAA,-2.83 ± 0.12,-2.96 ± 0.25
ACCCAGCAAUAUUACGAUUA,-1.61 ± 0.09,-1.41 ± 0.082
AACCAGCAAUAUUACGAGUC,-1.82 ± 0.1,-0.825 ± 0.11
GAAAAGCAAUAUUACGCUCA,-0.514 ± 0.11,0.0911 ± 0.14
CAUUAGCAAUAUUACGCGGG,-1.95 ± 0.3,0.421 ± 0.2
UGUGAGCAAUAUUACGGCUC,-3.06 ± 0.44,-3.18 ± 0.47
CGGCAGCAAUAUUACGACAU,-3.303 ± 0.021,-1.91 ± 0.035
CCGUAGCAAUAUUACGUGCG,-2.39 ± 0.11,-1.68 ± 0.12
AAGGAGCAAUAUUACGAAAG,-2.93 ± 0.21,
AAGUAGCAAUAUUACGUGAG,-1.57 ± 0.048,-0.575 ± 0.066
ACUCAGCAAUAUUACGUGUU,-3.14 ± 0.1,-1.28 ± 0.088

Sequence,self-splicing fitness (ln) (30 °C),self-splicing fitness (ln) (37 °C)
UGAGAGCAAUAUUACGUAAU,-3.22 ± 0.21,-2.22 ± 0.26
GCGUAGCAAUAUUACGAAGC,-3.48 ± 0.3,-1.67 ± 0.47
UCAAAGCAAUAUUACGUGAC,-3.36 ± 0.12,-2.15 ± 0.16
CCCCAGCAAUAUUACGUUAG,-3.99 ± 0.15,-2.97 ± 0.15
UCACAGCAAUAUUACGAUCA,-1.45 ± 0.091,-0.503 ± 0.088
CGUUAGCAAUAUUACGCCGU,,-0.993 ± 0.44
GACCAGCAAUAUUACGCCGA,-0.69 ± 0.14,-0.272 ± 0.15
GUGAAGCAAUAUUACGAGCU,-1.12 ± 0.14,-1.19 ± 0.21
UCCUAGCAAUAUUACGAAGU,-1.47 ± 0.1,-0.726 ± 0.14
UCCAAGCAAUAUUACGGUUU,-3.75 ± 0.2,-2.48 ± 0.21
GGCAAGCAAUAUUACGCACA,-0.684 ± 0.09,0.564 ± 0.11
AGUUAGCAAUAUUACGUCAC,,-0.825 ± 0.31
GAACAGCAAUAUUACGCGCU,-0.914 ± 0.088,-0.133 ± 0.11
AAGGAGCAAUAUUACGACCG,-2.16 ± 0.29,
AUAGAGCAAUAUUACGCAUU,-1.19 ± 0.096,-0.296 ± 0.1
GGACAGCAAUAUUACGCCGA,-0.609 ± 0.11,-0.306 ± 0.12
CGCUAGCAAUAUUACGUCCU,-1.59 ± 0.15,-1.45 ± 0.17
AGUGAGCAAUAUUACGUUGU,-4.07 ± 0.19,-1.78 ± 0.14
GACAAGCAAUAUUACGCGGA,-2.24 ± 0.16,-1.25 ± 0.13
CCUAAGCAAUAUUACGUCUA,-3.9 ± 0.24,-3.48 ± 0.36
CUCAAGCAAUAUUACGGCGG,-2.38 ± 0.092,-1.65 ± 0.11
GGCUAGCAAUAUUACGUGCA,0.326 ± 0.14,0.0604 ± 0.18
UCAAAGCAAUAUUACGCCGC,-3.89 ± 0.39,-1.67 ± 0.42
UUGGAGCAAUAUUACGGUCG,-2.36 ± 0.28,
UAUCAGCAAUAUUACGCUGG,-3.15 ± 0.25,-1.62 ± 0.21
